The values that follow come from paper PMC6504876, “TFIIE orchestrates the recruitment of the TFIIH kinase module at promoter before release during transcription” (Nature Communications, 2019).

To fix the notation:
B1: CDK7 (natural protein, UniProt P50613 1-346, looked up)
chain: MALDVKSRAKRYEKLDFLGEGQFATVYKARDKNTNQIVAIKKIKLGHRSEAKDGINRTALREIKLLQELSHPNIIGLLDAFGHKSNISLVFDFMETDLEVIIKDNSLVLTPSHIKAYMLMTLQGLEYLHQHWILHRDLKPNNLLLDENGVLKLADFGLAKSFGSPNRAYTHQVVTRWYRAPELLFGARMYGVGVDMWAVGCILAELLLRVPFLPGDSDLDQLTRIFETLGTPTEEQWPDMCSLPDYVTFKSFPGIPLHHIFSAAGDDLLDLIQGLFLFNPCARITATQALKMKYFSNRPGPTPGCQLPRPNCPVETLKEQSNPALAIKRKRTEALEQGGLPKKLIF
notes: CDK7 kinase, CAK subunit of TFIIH; It stood in the assay together with the other TFIIH subunits; also called CDK7 kinase of the CAK; source: Sf21 insect cells infected with baculoviruses for all TFIIH subunits; in whole cell extract, and purified within rIIH through Flag-XPD
B2: His-TFIIEβ/WT (natural protein, UniProt P29084 1-291, looked up)
chain: MDPSLLRERELFKKRALSTPVVEKRSASSESSSSSSKKKKTKVEHGGSSGSKQNSDHSNGSFNLKALSGSSGYKFGVLAKIVNYMKTRHQRGDTHPLTLDEILDETQHLDIGLKQKQWLMTEALVNNPKIEVIDGKYAFKPKYNVRDKKALLRLLDQHDQRGLGGILLEDIEEALPNSQKAVKALGDQILFVNRPDKKKILFFNDKSCQFSVDEEFQKLWRSVTVDSMDEEKIEEYLKRQGISSMQESGPKKVAPIQRRKKPASQKKRRFKTHNEHLAGVLKDYSDITSSK
notes: TFIIEβ, the β subunit of the general transcription factor TFIIE, encoded by GTF2E2; also called rIIEβ/WT; the β subunit of rIIEαβ/WT; source: E. coli, purified; alone or co-produced with rIIEα/WT
B3: His-TFIIEβ/D187Y (natural protein, UniProt P29084 1-291, looked up)
chain: B2 chain with D187Y
notes: TFIIEβ with the trichothiodystrophy patient mutation D187Y; The mutation is found in TTD patients; also called rIIEβ/D187Y; the β subunit of rIIEαβ/D187Y; source: E. coli, co-produced with rIIEα/WT, purified
B4: His-TFIIEβ/A150P (natural protein, UniProt P29084 1-291, looked up)
chain: B2 chain with A150P
notes: TFIIEβ with the trichothiodystrophy patient mutation c.448G>C [p.Ala150Pro]; The mutation is found in TTD patients; also called rIIEβ/A150P; the β subunit of rIIEαβ/A150P; source: E. coli, co-produced with rIIEα/WT, purified
B5: Flag-TFIIEα (natural protein, UniProt P29083 1-439, looked up)
chain: MADPDVLTEVPAALKRLAKYVIRGFYGIEHALALDILIRNSCVKEEDMLELLKFDRKQLRSVLNNLKGDKFIKCRMRVETAADGKTTRHNYYFINYRTLVNVVKYKLDHMRRRIETDERDSTNRASFKCPVCSSTFTDLEANQLFDPMTGTFRCTFCHTEVEEDESAMPKKDARTLLARFNEQIEPIYALLRETEDVNLAYEILEPEPTEIPALKQSKDHAATTAGAASLAGGHHREAWATKGPSYEDLYTQNVVINMDDQEDLHRASLEGKSAKERPIWLRESTVQGAYGSEDMKEGGIDMDAFQEREEGHAGPDDNEEVMRALLIHEKKTSSAMAGSVGAAAPVTAANGSDSESETSESDDDSPPRPAAVAVHKREEDEEEDDEFEEVADDPIVMVAGRPFSYSEVSQRPELVAQMTPEEKEAYIAMGQRMFEDLFE
notes: TFIIEα, the α subunit of the general transcription factor TFIIE; The methods name an anti-Flag-Tag antibody among those used for the co-immunoprecipitations; also called rIIEα/WT; the α subunit of rIIEαβ; source: E. coli, purified; alone or co-produced with rIIEβ

Conditions in all cases: both partners purified
For experiment [1], the target named is T1, Flag-XPD/WT (UniProt P18074 1-760).
T1 construct: XPD subunit of TFIIH; also called the XPD subunit of rIIH/WT; source: Sf21 insect cells infected with baculoviruses for all TFIIH subunits
In words: co-IP; purified rIIH with XPD/WT, /R112H or /R722W immunoprecipitated with anti-XPD and incubated at 150 and 500 mM KCl; blots for XPB, XPD, CDK7 (Fig. 3f).

In experiment [2] the target is T2, recombinant TFIIH (rIIH/WT) (UniProt P18074 1-760; P19447 1-782; P32780 1-548; Q92759 1-462; Q13888 1-395; Q13889 …).
T2 construct: XPD subunit of TFIIH; XPB subunit of TFIIH; p62 subunit of TFIIH; p52 subunit of TFIIH; p44 subunit of TFIIH; p34 subunit of TFIIH; p8 (TTDA, TTD-A) subunit of TFIIH; cdk7 (CDK7 kinase), CAK subunit of TFIIH; cyclin H, CAK subunit of TFIIH; MAT1, CAK subunit of TFIIH; also called rIIH-XPD/WT; TFIIH/WT; copies: + + + + + + + + +
In words: co-IP; rIIH/WT immunoprecipitated with anti-p62 (protein G magnetic beads) and incubated with rIIEαβ (α and β added together as the co-produced rIIE), washes at 150 and 500 mM KCl; blots with anti-XPB, anti-IIEα, anti-IIEβ (Fig. 3b).

For experiment [3], the target named is B5. Put plainly: co-IP; rIIEα/WT co-produced with rIIEβ/WT, /A150P or /D187Y, immunoprecipitated at 150 and 500 mM KCl; blots for IIEα and IIEβ (Fig. 3e).

Changes are numbered by the printed parent chain. Names may count otherwise.

As to B1, in experiment [1], the binding result is on record as “binds”.
As to B2, the binding result in experiment [2] and in experiment [3] was “binds” each time.
As for B3, the binding result in experiment [2] and in experiment [3] was “binds” each time.
In the case of B4, the binding result in experiment [2] and in experiment [3] was “binds” each time.
In the case of B5, the binding result in experiment [2] is listed as “binds”.
